Assays:
[1] = test system: human monocytes infected with BCG-GFP; test: Phagocytic score, BCG-GFP uptake by monocytes; conditions: 2 h of infection with BCG-GFP
Procedure: Monocytes were treated or not with GzmA, after which BCG-GFP was used to infect cells for 2 hours. Cells were then washed twice with FACS buffer and processed by flow cytometry. The phagocytic score was measured as previously described (Ackerman et al., 2011).

[2] = thawed aliquots tested up to a week after thawing
[3] = test system: Rab11-FIP1; test: Quantitative shotgun proteomics of treated and infected monocytes; format: cell-based, human; conditions: 200 nM GzmA, infected cells (MOI=3), overnight
Procedure: Quantitative shotgun proteomics. 1.5e5 human monocytes were either treated or not with 200 nM GzmA, and infected or not with mycobacteria (MOI=3) overnight. After incubation, cells were then washed thrice with PBS, and the pellet lysed using lysis buffer from EasyPep Mini MS Sample Prep Kit (Cat #A40006, Thermo-Fisher, Waltham, MA) supplemented with 1:100 HALT phosphatase inhibitor (Cat #78420, Thermo-Fisher, Waltham, MA). Lysis, reduction/alkylation, protein digestion, and peptide clean-up were performed according to EasyPep recommendations. […] After peptide cleanup, samples were dried using a vacuum centrifuge, and then resuspended in 0.1% formic acid in water for LC-MS analysis. The samples were analyzed on a Q-Exactive orbitrap MS/MS equipped with a nanospray emitter (Thermo Fisher Scientific, Waltham, MA). Nanospray parameters in positive ion mode were as follows: spray voltage, 2.0 KV; capillary temperature, 320° C.; S-lens RF level, 55. […] The MS/MS spectra were analyzed using Sequest HT and MSPepSearch, both integrated in Proteome Discoverer 2.4.1.15 (Thermo Scientific, MA). […] Finally, the results were subjected to statistical analysis using percolator node where the False discovery rate (FDR) was calculated using a decoy database search and only high confidence peptide identifications with FDR 0.01 were included. […]

[4] = test system: mycobacteria within iMac TLR4KO cells; test: MGIA in iMac TLR4KO cells; format: cell-based, mouse

B1: GzmA-WT: recombinant wild-type human Granzyme A, homodimeric serine protease, purified from HEK293T supernatants (protein)
chain: IIGGNEVTPHSRPYMVLLSLDRKTICAGALIAKDWVLTAAHCNLNKRSQVILGAHSITREEPTKQIMLVKKEFPYPCYDPATREGDLKLLQLMEKAKINKYVTILHLPKKGDDVKPGTMCQVAGWGRTHNSASWSDTLREVNITIIDRKVCNDRNHYNFNPVIGMNMVCAGSLRGGRDSCNGDSGSPLLCEGVFRGVTSFGLENKCGDPRGPGVYILLSKKHLNWIIMTIKGAV
modifications: left off: small tags and cut ends
notes: recombinant wild-type human Granzyme A, homodimeric serine protease, purified from HEK293T supernatants
In the case of B1, the phagocytic score [1] is reported as “higher phagocytic score compared to untreated cells”, the “stability at 4° C. (retention of substrate activity)” value [2] is reported as “continued to retain its activity” and the Rab11-FIP1 protein level [3] is reported as “upregulated”. The “inhibition of intracellular mycobacterial growth in TLR4-deficient iMac cells” value [4] was “incapable of inhibiting intracellular mycobacterial growth”.
